Blank lines part the entries; values can stand above or below the substance they belong to.
Assays:
Assay in all cases: SEC; size exclusion chromatography coupled online to ICP-sfMS (HPLC-ICP-MS) with diode array detection, metal-free HPLC system; apparent MW from a calibration curve; purified MTs with their bound metals
[1] = target: native (non-tagged) Brassica napus metallothionein BnMT3b (Brassica napus)
[2] = target: native (non-tagged) Brassica napus metallothionein BnMT2 (Brassica napus)
[3] = target: native (non-tagged) Brassica napus metallothionein BnMT3a (Brassica napus)

stoichiometry N [1]: 2
Substance: native (non-tagged) Brassica napus metallothionein BnMT3b (natural protein)

stoichiometry N [2]: 2
Substance: native (non-tagged) Brassica napus metallothionein BnMT2 (natural protein)

stoichiometry N [3]: 2
Substance: native (non-tagged) Brassica napus metallothionein BnMT3a (natural protein)

From paper PMC11497405
